Patent US20050181362A1 (published 2005)

B1: GR LBD (F602S) 521-777 (receptor)
chain: GSVPATLPQLTPTLVSLLEVIEPEVLYAGYDSSVPDSTWRIMTTLNMLGGRQVIAAVKWAKAIPGFRNLHLDDQMTLLQYSWMSLMAFALGWRSYRQSSANLLCFAPDLIINEQRMTLPCMYDQCKHMLYVSSELHRLQVSYEEYLCMKTLLLLSSVPKDGLKSQELFDEIRMTYIKELGKAIVKREGNSSQNWQRFYQLTKLLDSMHEVVENLLNYCFQTFLDKTMSIEFPEMLAEIITNQIPKYSNGNIKKLLFHQK
notes: also called GR(521-777) F602S; cleaved GR LBD

Tests used:
X-ray crystal structure = biological target: the molecule itself; experiment: X-ray crystal structure
GR LBD (F602S) 521-777 = biological target: B1; experiment: co-crystallization
Experimental: The GR/TIF2/DEX crystals were grown at room temperature in hanging drops containing 3.0 ul of the above protein-ligand solutions, and 0.5 ul of well buffer (50 mM HEPES, pH 7.5-8.5 (preferred pH range is 8.0 to 8.5), and 1.7-2.3M ammonium formate). Crystals were also obtained with mixing of the above protein solution and the well buffer at various volume ratios. Crystals appeared overnight and continously grew to a size up to 300 micron within a week. Before data collection, crystals were transiently mixed with the well buffer that contained an additional 25% glycerol, and were then flash frozen in liquid nitrogen.

Binder: B1
- binding result (X-ray crystal structure): binds

B2: TIF2 732-756 peptide (peptide)
peptide: QEPVSPKKKENALLRYLLDKDDTKD
notes: Free peptide used in solution for the stability study and for co-crystallization; No biotin is mentioned for these uses; also called TIF2 peptide; TIF2 fragment
- binding result (GR LBD (F602S) 521-777): binds
